Where only a bound is given, the exact number is not on record here.

This data set is described as follows: soluble fraction after stress (log2 fold change); higher = more stays soluble; pooled small domains, quantitative proteomics. To be noted: stress: 50 degC. Put shortly:
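Quantitative proteomics served as the high-throughput read-out for pooled custom libraries of small protein domains. Each was stressed at 50°C. Aggregation propensity is expressed as the base-two log fold change in soluble protein after stress. A higher value means a larger share of the protein remains in solution.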
Regarding “HMRHRITEKDKQFRIGQQVWHSEYGKGMVLSVDGIGSSARLTVSFVSGKLAKIIGTFVSTEP”, the “soluble fraction (log2)” value was -1.68.
Then “HMIRTGEVVTGKVINVKEDQIILNIGFKSDGIITRNEYTNDNSLDLRTVVHEGDEIEAKVLKVNDGEGQVV”, with at least 0.62.
“HMTLQEFYARVGGDYNATLSRLPSEALVKKFILKYPGDPSFAQLKDALAAQDWELAFRASHTLKGVAQN”: the “soluble fraction (log2)” value was -1.3.
With “HMLFKNASGTVVSRIQSQVDGQINIRTGSGNAPDYAFVAKPDGAVELYHNGTKQFETGSSGVLLP”, the “soluble fraction (log2)” value was -0.274.
In the case of “HMAPRIVTIQIPVDKIRDVIGPGGKVIRSIIERTGVKIDVEDDGRVNVASADGDSAQRAIAIIQELTAT” it was 0.0444; in that of “HMVGKIVVPHLEGKPAEMARDILARDGFKSVHEEVLPSAEFGAGRVVRTEPHAGTNVAKTDPVTIFVSVGL”, -0.00887; in that of “HMGEDFPYVAYATDSVRLRSKPSSSGDILAVIRQGDAVLITGSDGNYKIVEYEGRKGYVISAFLSQTP”, -0.199.
Consider “HMFDGVAAGKPAILDALEDAGGFLPLNSKSSVEEIQASFSFSKRVFKQLIGMLYKERKIVITDDGIRLAD”, for which the “soluble fraction (log2)” value is -0.352.
Then “HMHNLYAPTQKEVDHARRVVEAAEAAAREGLGVVSLNGKMVDGPVIDRARLVLSRAELSGIRE”, with 0.072.
Then “HMLKLEPYTINEINSLQELYDLGNVRALETLISIYKDKNQVYDTRFYVLDILSKYDNPLIQEALEESITN”, with -1.78.
Consider “HMAGISQGLAENVERRITTLLREQKEVPVHDIDFPGISRETVGQVLHQMVQEEKLLLDDGMISLSPNQ”, for which the “soluble fraction (log2)” value turned out to be 0.143.
Then “HMSPLTPEEAEVLRILGDHGDMTVDNIATEGKMSAAAVLRVLGVLSAYGLAVPSGPGRWGSRAA”, with -0.24; and “HMAPLATLEAGEDGSVKLPNLAGHSIREVAAALGGAKLSLIPIGSGTSWKQTPAPGAVLHSGDTVTVYF”, with 0.142; and “HMSYQNKLNYLINAFGGADNFQKLLGVGPSAISNYKSRKHLPLNQAKRLSKIAPQFGFSLDPHSLQIST”, with -0.377.
With “HMSNNILEISSNKKNMKIQENKNLVESYYSKTENLYSFKLVFKNKRDLDQFLKEVYEDDSTINYKTSS”, the “soluble fraction (log2)” value was -0.412.
In the case of “HMKKILIVTNRSAGMVVYTIPEEGIRREFTPGETKKIPFEELEKLAYLSGGRTLMENFLKIVDTETTEELG” it was -0.543.
Then “HMSRAAQRLFMSQPPLSRHIRQLEDRLGVTLFVRHTRGLTLTEDGQRVLEMVRPLLDLQDKTYAALSQLT”, with 0.382.
For “HMAAINPSALREPATPPEQLSAGDSVLHPRFGRGEILELQQQGGDPRAIVQFINEPKPRTLVLRYAQLRK”, the “soluble fraction (log2)” value was -0.049.
In the case of “HMYSYSGSVSNTHDVPVSVVLKDAEGVAIASWDLQAKQSLNISAKDIATSSGTIEITGDGVSETKTVTFTK” it was 0.391.
Then “HMRSNQKVSQIAISQVLPGMVTAKNVYSRNDQLILNRETTLDSTKIAKIMFYAIESIYVYEPE”, with -1.9; and “HMKDHLRFEILSFAGDLRNGVVKTRQEFETIFAFYDKYEEIITALKVHNGYVDSEFDFIKEKFKELKSK”, with -1.92.
Then “HMVNAVKFAIEKMPYKYSSLLTLKYVMGYSGKEIAEITGLSETNVRQQLLKGRKLLESMLEE”, with -2.43.
With “HMKQNSDDGEIRKIIIEILDNNLDNVNKYKSGRTNVLDFFVGQVMKQTRGQANPELTRSILTEELSN”, the “soluble fraction (log2)” value was 0.0594.
With “HMSDLGEIEKIVDEVLAENITKVQEYKDGKKGLMGMFMGQIMKKSGGKADPKIANQLLTEKL”, the “soluble fraction (log2)” value was found to be 0.114.
In the case of “HMNEISFYPNPAKESLTVKGLSEITSYSISDINGKLIQYGTTFDRINLEKLTKGFYFLTIGNTISKKLIV” it was -0.39; in that of “HMQIVPVDYSTFMQSIDDKTVDHVEIQSNQILYTVKDDHKKYKTGIMNDPTLAQRLMESGATFTQD”, 0.0939; in that of “HMKEVDSESAFAERGISEVWIPALQKMGILTLEALDAANPNKVFNDLGGMRKKLKIDAAMPTKDEVTAWIQ”, 0.0238.
Then “HMSLDLNENEKTIFDIIQNKKTIRLSELKIEAGLSNKGWDKAMKSLTKQGLAKVVKTEDQLTVKLL”, with -0.0993; and “HMNIQGIFGRNLKQKRLEKGMTQEQLAEKAGVSTDTVKRYESGKYDGIRLDMAWYMANALDTPLQALLPP”, with 0.367; and “HMSRREEALIALAQRVARQVARTKQPVTLEPMPANERRVIHVALRDNPDVETRSSGEGDQRRVTVYPRQ”, with 0.05.
Take “HMYEDNERNLYSVVINFLNEHKIKISREAINLVINRSSGDKHNLKQELNKILNYSFSNKNITYETIEKLSN”: the “soluble fraction (log2)” value is -0.585.
In the case of “HMELADNFAKLILTARESKGWTQAQLGQRMAETINVIKSAESGKPPADSVIRKFEMILGIELM” it was -1.96; in that of “HMGKGGVAYLLESEFGIELPKDMQREFGPIANDIVDSLGREVSGAELKSMFWKEYIERETPFLLLLVTGQL”, 0.457; in that of “HMIRDTTMYPVSVNGKKRYEWTVSKSISDDELKQQVLELEEIKKWIEGHEIKKLIFVPGRAINIV”, -0.69.
Then “HMSESKYKMIKNWIKSKILDGTLVPNQKIYSESELMEIFDVSRHTVRLAIGELVSEGYLFKRQGTGTFVTQ”, with -0.577; and “HMRGPVRLDLPVSGLSRSSGPALAKILQAVPGVHKAHVNVRSGKATLEYDPARAKVTDFVEVIRSAGFGT”, with -0.0414; and “HMLLELINLQVKILENEELKIIGKVIDLENEKNNLLVIELLKDQKKVLVPFVKEIVPLIDIKNNFIMINPP”, with -0.897.
In the case of “HMGGRSARVRRAVLDAVVELLGEGGVRAVTIAEVAKRSGVNASSIYRRWRSIDALILDAAQDL” it was -1.81; in that of “HMQNYLLFEEAKNIVNTLNLTNEKDWSEFIKKDFTYKNQIPIFPNQYYKHKGWVDWNDWLGINK”, -1.56; in that of “HMIHIGAQEALGEFQDEEGNLTASKKEVVAALVKKSKEVSFPTSYEYEVAARMAADEYNDAGQRMA”, -0.0641.
On to “HMNFTKHPENPNFVVYRFTDPERANSFRAELIANNISFEEDTEKKKQLIYTLFAIHTKYYNQSMQINIK”, for which the “soluble fraction (log2)” value was -0.463.
As for “HMITPAGVPPALLPVFDQFTLPDGTLRRGAVAAALRALYGPDAPQSGKRYQMEYDRVMAWHSQYFTSLH”, the “soluble fraction (log2)” value is -0.34.
In the case of “HMSPEVEEISIDHLKAGMRILSDLRLPNGTLVAPKGSVVDAHFIKIVENYVISYFGNPFPDRIKVIM” it was -1.4; in that of “HMAGVSVTSLTTFWRLAADTPDTPSGADDPSGWSRTEPSIPDGYEGKLYRTIRTIMSDGTATWTSPD”, -0.357.
For “HMSGVSESIEKKIQYLLLEKPLPLHDLIEAIEIGKEEDRLKVLRSLMDSDTVKIEDDLYHWNA”, the “soluble fraction (log2)” value is -0.0841.
In the case of “HMSSEPYISLPRGAAHDAYPLSTKAVAAQLGMSEVWLANLRSKGKGPRYVRVGTRVFYSPEDVAQWRRAT” it was -0.889.
Then “HMARTLSVTVSENYANMRLDSFLFESGLYPSRSKAVKQIESGKVFVNGNEPTKKTIVVANDFIVYEEYAEE”, with -1.06; and “HMATIGVGSKVTLTTYVDWVGNGLLKTRDFYFVSELNGKRAVLRADSMNGAIYAAVNIDNLRI”, with -2.56; and “HMIIVMASSKKEDVAHVVHKIEELGYKAHVIVGVERTVVAAVGDERGKERLISLEALPHVEKVFPILK”, with -0.055.
In the case of “HMDKDTFGEFENVKLTEEEYNKLVEKLGENNTKLMIEELSTGIASKGYKYKSHYATILSWSRRRVTKLQER”, the “soluble fraction (log2)” value worked out at 0.0444.
As for “HMALALSGVDLNRNRLTISWQTSKGVSYRVQRSSDLQSWTDVGAERLGNGNRLSHTQALNTESAFLRVII”, the “soluble fraction (log2)” value was -0.0897.
For “HMKVRVFIERSNDGYSAYMPDDNNLPFGLTGDGKTAQEAMQDFLLARDEMKEFFIEEGKEFPEVEFDFS”, the “soluble fraction (log2)” value was -1.35.
In the case of “HMKNYYSILGVTPDSSEAEIKSAYRRLARKFHPDVNPDGASRFKDISEAYETLSDAKKRFQYDTINGF” it was 0.107; in that of “HMPAFWILAVLAGGRRHGYQIMREAALSSEGLVTLKPTTLYAALERLERDGAIQQDGEEIVDGRVRRYYRI”, 0.259; in that of “HMALEVPGIAKDKIYRIFGQLYERQQKWEDAIDYYNRAVFFTLSGTDMILYQEDLSRVKQKISL”, -0.0269.
On to “HMMTDEEFLRIAGYMKQRYGIDLGQKKVIMNGRLENHIKSGGWSSFHAFMNDLEKDSSGKLEKELVNLLTT”, for which the “soluble fraction (log2)” value came to 0.0314.
In the case of “HMLNTLGADIRALRKARGLTLAELAQTLGRSVGWLSQVERDMSEPGINDLRDLARALDVSISSLFG” it was -1.13.
“HMPPTEQVYRSHVPPQYDGFPIEKYFTTRFSYQDVEEWSRQILAGKIEVNGKTALIGQILSASDLTVTRA”: the “soluble fraction (log2)” value was -0.855.
Then “HMPRQREVPDVSGWTEQHAKVYLEALGYRVKVIYLEVSSFDKGLVQETSPAKGSKVEEGDTIDLRVSNQE”, with -0.367; and “HMRGQLADLWLPREQARRAAEIVAARPVPLGSVKTWIARGKLAPRKTGTGPALYRVGALVSLLAKS”, with -1.67; and “HMNKKETRLNNFIHFLKIRNSITVKEMANHLNVSEMTVRRDIKELTADHTINFENGKIMFNPQSSL”, with -1.06.
In the case of “HMSKITNALLMMKLLSNGKVYSVKELSEELGVTERMVRNYKEQLEMSGYIIESFKGPGGGYFINKN” it was -1.61; in that of “HMDTYKGFIFEVVDKYFSPTLNQKIGQAKNKQGIVLLQTKPSFTQDPKVLIEELKLIIDRDNLKA”, -0.145.
Then “HMDAHIGTLTPRERETLHHLAIGHSNKVIAKKLNLAESTVKAYVQSILRKLGLSSRVQAAVYAIQHDIR”, with -0.205.
Consider “HMENTVVMPNLLGKTMTEAKIELKDLSISITLKGSENSSQYAAGQIISQSVDSGTRVAVGSSVEVTIAGS”, for which the “soluble fraction (log2)” value was 0.0377.
On to “HMNNDSQYLATLQRYYAEHRVLPSYARMLPLLGFASKAAVKKVLERLEVVGMLERTEDGDWAPSERFFER”, for which the “soluble fraction (log2)” value is -1.7.
Then “HMVINKRELNVLSIYSRGSEKRAIILFPTGQTKLVKVGDTLNGGRVAAIGTTEIRYIKGGNNLVLKIPQ”, with -2.41.
Turning to “HMDPTVEENKLNPRDLLIIQRVKEGRTNKEIAEELNVAEITVKKQLSSLYQRYKVHNRNQLLLALD”, the “soluble fraction (log2)” value worked out at 0.117.
